Experimental data reported in patent US7038112B2, “Fatty acid elongases” (Miami University, priority 1997, dated 2006).
Read-outs that look alike come from different tables or passages of the source.

Columns and labels:
[1] = In vitro fatty acid elongation assay with yeast microsomes, 18:0 acyl-CoA substrate; assay type: biochemical, Saccharomyces cerevisiae; settings: for (%) 20:0 acyl CoA / (%) 22:0 acyl CoA / (%) 24:0 acyl CoA / (%) 26:0 acyl CoA / (%) Total / Rate, 20:0 acyl CoA / Rate, 22:0 acyl CoA / Rate, 24:0 acyl CoA / Rate, 26:0 acyl CoA / Rate, Total: second experiment
Protocol: (§1) Transformed yeast cells were grown in the presence of either glucose or galactose (2% w/v) as described in Example 1. Cells were harvested by centrifugation at 5000×g for 10 min and washed with 10 ml ice cold isolation buffer (IB), which contains 80 mM Hepes-KOH, pH 7.2, 5 mM EGTA, 5 mM EDTA, 10 mM KC1, 320 mM sucrose and 2 mM DTT). Cells were then resuspended in enough IB to fill a 1.7 ml tube containing 700 μl of 0.5 μm glass beads and yeast microsomes were isolated from the cells essentially as described in Tillman, T. and Bell, R., J. Biol. Chem. 261:9144–9149 (1986). The microsomal membrane pellet was recovered by centrifugation at 252,000×g for 60 min. The pellet was rinsed by resuspending in 40 ml fresh IB and again recovered by centrifugation at 252000×g for 60 min. Microsomal pellets were resuspended in a minimal volume of IB, and the protein concentration adjusted to 2.5 μg μl^−1 by addition of IB containing 15% glycerol. Microsomes were frozen on dry ice and stored at −80° C. The protein concentration in microsomes was determined by the Bradford method (Bradford, 1976).
(§2) Fatty acid elongase activity was measured essentially as described in Hlousek-Radojcic, A. et al., Plant J. 8:803–809 (1995). Briefly, the standard elongation reaction mix contained 80 mM Hepes-KOH, pH 7.2, 20 mM MgCl2, 500 μM NADPH, 1 mM ATP, 100 μM malonyl-CoA, 10 μM CoA-SH and 15 μM radioactive acyl-CoA substrate. The radiolabeled substrate was either [1^−14C]18:1-CoA (50 uCi μmol^−1), [1^−14C]18:0-CoA (55 uCi μmol^−1), or [1^−14C]16:0-CoA (54 uCi μmol^−1). The reaction was initiated by the addition of yeast microsomes (5 μg protein) and the mixture incubated at 30° C. for the indicated period of time. The final reaction volume was 25 μl.
(§3) Methyl esters of the acyl-CoA elongation products were prepared as described in Example 1. Methyl esters were separated on reversed phase silica gel KC18 TLC plates (Whatman, […] thick), quantified by phosphorimaging, and analyzed on by ImageQuant software (Molecular Dynamics, Inc., Sunnyvale, Calif.). The detection limit for each product is about 0.001 nanomoles per min. per mg microsomal protein, depending on the phosphorimage exposure time.
(§4) Yeast cultures containing full-length EL1 in λYES and full-length EL2 in pYEUra3 were grown in the presence of galactose or glucose as described in Example 2. Microsomes were then prepared from each of the cultures and fatty acid elongation assays were carried out as described in Example 2.
(§5) In the first experiment, microsomes were prepared from galactose-induced cultures of EL1, EL2 and FAE1, and incubated with either [1-^14C] 18:0 acyl-CoA or [1-^14C] 18:1 acyl-CoA as substrate. The amounts of various reaction products synthesized after 30 minutes (min) were determined as described in Example 2.
In a second experiment, microsomes were prepared from galactose-induced and from glucose-repressed yeast cultures containing EL1 or EL2 coding sequences. The microsomal preparations were incubated with either 18:0 acyl-CoA or 18:1 acyl-CoA as substrate and the fatty acid reaction products determined as described above. […]

[2] = assay type: biochemical, Saccharomyces cerevisiae; settings: for (%) 20:1 acyl CoA / (%) 22:1 acyl CoA / (%) 24:1 acyl CoA / (%) 26:1 acyl CoA / (%) Total / Rate, 20:1 acyl CoA / Rate, 22:1 acyl CoA / Rate, 24:1 acyl CoA / Rate, 26:1 acyl CoA / Rate, Total: second experiment
Protocol: as §1, §2, §3, §4, §5
In a second experiment, microsomes were prepared from galactose-induced and from glucose-repressed yeast cultures containing EL1 or EL2 coding sequences. The microsomal preparations were incubated with either 18:0 acyl-CoA or 18:1 acyl-CoA as substrate and the fatty acid reaction products determined as described above.

[3] = 18:0-CoA substrate, +Galactose (induced)
[4] = 18:0-CoA substrate, +Glucose (uninduced)
[5] = 18:0-CoA substrate, galactose-induced, 30 min, first experiment
[6] = +Gal, standard reaction mix, average of two experiments
[7] = +Glu, standard reaction mix, one experiment
[8] = galactose-induced, −A&C (ATP and Coenzyme A omitted), average of two experiments
[9] = galactose-induced, −ATP, average of two experiments
[10] = galactose-induced, −CoA, average of two experiments
[11] = 18:1-CoA substrate, +Galactose (induced)
[12] = 18:1-CoA substrate, +Glucose (uninduced)
[13] = 18:1-CoA substrate, galactose-induced, 30 min, first experiment

B1: EL1: Arabidopsis β-keto acyl synthase gene product (SEQ ID NO:2) expressed in yeast microsomes (protein, listed as Arabidopsis thaliana)
chain: MDRERLTAEMAFRDSSSAVIRIRRRLPDLLTSVKLKYVKLGLHNSCNVTTILFFLIILPLTGTVLVQLTGLTFDTFSELWSNQAVQLDTATRLTCLVFLSFVLTLYVANRSKPVYLVDFSCYKPEDERKISVDSFLTMTEENGSFTDDTVQFQQRISNRAGLGDETYLPRGITSTPPKLNMSEARAEAEAVMFGALDSLFEKTGIKPAEVGILIVNCSLFNPTPSLSAMIVNHYKMREDIKSYNLGGMGCSAGLISIDLANNLLKANPNSYAVVVSTENITLNWYFGNDRSMLLCNCIFRMGGAAILLSNRRQDRKKSKYSLVNVVRTHKGSDDKNYNCVYQKEDERGTIGVSLARELMSVAGDALKTNITTLGPMVLPLSEQLMFLISLVKRKMFKLKVKPYIPDFKLAFEHFCIHAGGRAVLDEVQKNLDLKDWHMEPSRMTLHRFGNTSSSSLWYEMAYTEAKGRVKAGDRLWQIAFGSGFKCNSAVWKALRPVSTEEMTGNAWAGSIDQYPVKVVQ
(%) 20:0 acyl CoA [1, 3]: 55.8% | (%) 22:0 acyl CoA [1, 3]: 17.4% | (%) 24:0 acyl CoA [1, 3]: 15.3% | (%) 26:0 acyl CoA [1, 3]: 11.5% | (%) Total [1, 3]: 100.0% | Rate, 20:0 acyl CoA [1, 3]: 0.074 Nanomoles/minute/mg of microsomal protein | Rate, 22:0 acyl CoA [1, 3]: 0.023 Nanomoles/minute/mg of microsomal protein | Rate, 24:0 acyl CoA [1, 3]: 0.020 Nanomoles/minute/mg of microsomal protein | Rate, 26:0 acyl CoA [1, 3]: 0.015 Nanomoles/minute/mg of microsomal protein | Rate, Total [1, 3]: 0.133 Nanomoles/minute/mg of microsomal protein | (%) 20:0 acyl CoA [1, 4]: 100.0% | (%) 22:0 acyl CoA [1, 4]: 0.0% | (%) 24:0 acyl CoA [1, 4]: 0.0% | (%) 26:0 acyl CoA [1, 4]: 0.0% | (%) Total [1, 4]: 100.0% | Rate, 20:0 acyl CoA [1, 4]: 0.007 Nanomoles/minute/mg of microsomal protein | Rate, 22:0 acyl CoA [1, 4]: 0.000 Nanomoles/minute/mg of microsomal protein | Rate, 24:0 acyl CoA [1, 4]: 0.000 Nanomoles/minute/mg of microsomal protein | Rate, 26:0 acyl CoA [1, 4]: 0.000 Nanomoles/minute/mg of microsomal protein | Rate, Total [1, 4]: 0.007 Nanomoles/minute/mg of microsomal protein | effect of omission of ATP and/or CoA on overall amounts of VLCFAs synthesized ([1]; 18:0-CoA substrate, galactose-induced): does not have a significant effect | (%) 20:0 acyl-CoA product [1, 5]: 38.8% | (%) 22:0 acyl-CoA product [1, 5]: 21.9% | (%) 24:0 acyl-CoA product [1, 5]: 19.9% | (%) 26:0 acyl-CoA product [1, 5]: 19.4% | (%) Total acyl-CoA products [1, 5]: 100.0% | Rate, 20:0 acyl-CoA product [1, 5]: 0.084 Nanomoles/minute/mg of microsomal protein | Rate, 22:0 acyl-CoA product [1, 5]: 0.047 Nanomoles/minute/mg of microsomal protein | Rate, 24:0 acyl-CoA product [1, 5]: 0.043 Nanomoles/minute/mg of microsomal protein | Rate, 26:0 acyl-CoA product [1, 5]: 0.042 Nanomoles/minute/mg of microsomal protein | Rate, Total acyl-CoA products [1, 5]: 0.216 Nanomoles/minute/mg of microsomal protein | 20:0 product as a percent of total products formed [1, 6]: 46.2% | 22:0 product as a percent of total products formed [1, 6]: 18.7% | 24:0 product as a percent of total products formed [1, 6]: 18.1% | 26:0 product as a percent of total products formed [1, 6]: 17.1% | Total products as a percent of total products formed [1, 6]: 100.0% | 20:0 product as a percent of total products formed [1, 7]: 53.9% | 22:0 product as a percent of total products formed [1, 7]: 14.4% | 24:0 product as a percent of total products formed [1, 7]: 18.5% | 26:0 product as a percent of total products formed [1, 7]: 13.2% | Total products as a percent of total products formed [1, 7]: 100.0% | increase in overall elongase activity on induction with galactose, 18:0 acyl CoA substrate ([1]; galactose-induced vs glucose): about 19 fold | 20:0 product as a percent of total products formed [1, 8]: 41.7% | 22:0 product as a percent of total products formed [1, 8]: 19.4% | 24:0 product as a percent of total products formed [1, 8]: 16.7% | 26:0 product as a percent of total products formed [1, 8]: 22.3% | Total products as a percent of total products formed [1, 8]: 100.0% | 20:0 product as a percent of total products formed [1, 9]: 34.4% | 22:0 product as a percent of total products formed [1, 9]: 13.7% | 24:0 product as a percent of total products formed [1, 9]: 20.6% | 26:0 product as a percent of total products formed [1, 9]: 31.4% | Total products as a percent of total products formed [1, 9]: 100.0% | 20:0 product as a percent of total products formed [1, 10]: 47.8% | 22:0 product as a percent of total products formed [1, 10]: 18.0% | 24:0 product as a percent of total products formed [1, 10]: 19.1% | 26:0 product as a percent of total products formed [1, 10]: 15.2% | Total products as a percent of total products formed [1, 10]: 100.0% | 18:0-CoA elongation activity, +Glu ([1]; microsomes from glucose-grown cultures, standard reaction mix): .037 nanomoles/minute/mg of microsomal protein | increase in 18:1 CoA elongation, microsomes from induced vs uninduced cells [2]: about 1.3 fold | (%) 20:1 acyl CoA [2, 11]: 100.0% | (%) 22:1 acyl CoA [2, 11]: 0.0% | (%) 24:1 acyl CoA [2, 11]: 0.0% | (%) 26:1 acyl CoA [2, 11]: 0.0% | (%) Total [2, 11]: 100.0% | Rate, 20:1 acyl CoA [2, 11]: 0.081 Nanomoles/minute/mg of microsomal protein | Rate, 22:1 acyl CoA [2, 11]: 0.000 Nanomoles/minute/mg of microsomal protein | Rate, 24:1 acyl CoA [2, 11]: 0.000 Nanomoles/minute/mg of microsomal protein | Rate, 26:1 acyl CoA [2, 11]: 0.000 Nanomoles/minute/mg of microsomal protein | Rate, Total [2, 11]: 0.081 Nanomoles/minute/mg of microsomal protein | (%) 20:1 acyl CoA [2, 12]: 100.0% | (%) 22:1 acyl CoA [2, 12]: 0.0% | (%) 24:1 acyl CoA [2, 12]: 0.0% | (%) 26:1 acyl CoA [2, 12]: 0.0% | (%) Total [2, 12]: 100.0% | Rate, 20:1 acyl CoA [2, 12]: 0.062 Nanomoles/minute/mg of microsomal protein | Rate, 22:1 acyl CoA [2, 12]: 0.000 Nanomoles/minute/mg of microsomal protein | Rate, 24:1 acyl CoA [2, 12]: 0.000 Nanomoles/minute/mg of microsomal protein | Rate, 26:1 acyl CoA [2, 12]: 0.000 Nanomoles/minute/mg of microsomal protein | Rate, Total [2, 12]: 0.062 Nanomoles/minute/mg of microsomal protein | (%) 20:1 acyl-CoA product [2, 13]: 80.8% | (%) 22:1 acyl-CoA product [2, 13]: 19.2% | (%) 24:1 acyl-CoA product [2, 13]: 0.0% | (%) 26:1 acyl-CoA product [2, 13]: 0.0% | (%) Total acyl-CoA products [2, 13]: 100.0% | Rate, 20:1 acyl-CoA product [2, 13]: 0.111 Nanomoles/minute/mg of microsomal protein | Rate, 22:1 acyl-CoA product [2, 13]: 0.026 Nanomoles/minute/mg of microsomal protein | Rate, 24:1 acyl-CoA product [2, 13]: 0.0 Nanomoles/minute/mg of microsomal protein | Rate, 26:1 acyl-CoA product [2, 13]: 0.0 Nanomoles/minute/mg of microsomal protein | Rate, Total acyl-CoA products [2, 13]: 0.137 Nanomoles/minute/mg of microsomal protein
